Laboratory results reported in publication PMC3627194, “Xentry, a new class of cell-penetrating peptide uniquely equipped for delivery of drugs” (Scientific Reports, 2013).
Non-standard residues stand in square brackets, D forms with d. Residues, ends and D or L forms follow the SMILES beside them. No end group written: not given here. *: point of attachment. FITC = O=C1OC2(c3ccc(O)cc3Oc3cc(O)ccc32)c2ccc(NC(=S)*)cc21; Biotin = O=C1N[C@H]2[C@H](CS[C@H]2CCCCC(=O)*)N1

Key:
WM-266-4 melanoma cells [1] = test: Xentry-KALA fusion peptide delivery of anti-B-raf siRNA, apoptosis (annexin-V fluos); format: cell-based; details: 10 μM Xentry-KALA fusion peptide with 30 nM Tex615-labelled siRNA against B-raf, 72 h
Protocol: Figure 3 Xentry-mediated delivery of antibody and siRNA cargoes into cells. (a) Uptake of Xentry-conjugated and unconjugated FITC-labelled rabbit IgG by HepG2 cells. Cell nuclei were stained blue with DAPI. (b) Representative cell showing staining of tubulin by a Cy3-labelled anti-β-tubulin antibody delivered to HepG2 cells by Xentry. HepG2 cells were incubated with the Xentry- anti-β-tubulin antibody conjugate for 1 h, washed, then incubated and photographed 24 h later. For comparison, a representative fixed and permeabilized cell is shown which has been stained by the free anti-β-tubulin antibody. […] (c) The abilities of a Xentry-conjugated and unconjugated anti-B-raf antibody to induce the apoptosis of WM-266-4 melanoma cells, as evidenced by staining of cells with annexin-V fluos (green). […] For comparison, the anti-B-raf siRNA was transfected into cells using the PolyMag agent. The siRNA was omitted from controls. Scale bar, 50 μm.
A 600 μl solution was prepared containing 30 nM of a Tex615-labelled siRNA against B-raf (sense 5′-XAGAAUUGGAUCUGGAUCAUTTY-3′; antisense 5′-[…]-3′; X = C12 amino, Y = Tex615) (Integrated DNA Technologies, Iowa) and 10 μM of a Xentry-KALA fusion peptide (biotin-[…]; Peptide 2.0 Inc., Chantilly, VA). […] Cells were stained with annexin-V Fluos to detect apoptotic cells by fluorescence microscopy, and photographed. […]

syndecan-4 = molecular target: T1, syndecan-4 (Homo sapiens, UniProt P31431); test: Anti-syndecan 4 antibody blockade of Xentry uptake by HepG2 cells; format: cell-based; details: FITC-lclrpvg 10 μM, 3 h
T1 construct: endogenous in cells; host or cells: HepG2 (ATCC)
T1 sequence (P31431 19-198): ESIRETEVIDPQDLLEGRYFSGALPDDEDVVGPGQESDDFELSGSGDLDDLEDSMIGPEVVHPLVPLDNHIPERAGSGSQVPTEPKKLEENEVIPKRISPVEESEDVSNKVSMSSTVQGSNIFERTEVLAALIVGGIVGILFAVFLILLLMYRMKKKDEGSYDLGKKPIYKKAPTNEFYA
Protocol: Cell nuclei were stained blue with DAPI. […] Scale bar, 50 μm.
The media was replaced with 500 μl of MEM media containing 10% FCS and either 1 μg/ml of a goat anti-human syndecan-4 antibody (R&D Systems, Minneapolis, MN), or 1 μg/ml of the control goat anti-human TNF-related apoptosis-inducing ligand (TRAIL) antibody (Santa Cruz Biotechnology Inc., Santa Cruz, CA). The cells were then incubated at 37°C and 5% CO2 for 30 min. FITC-labelled Xentry (FITC-lclrpvg) was added at a final concentration of 10 μM and the cells incubated for 3 h at 37°C in a 5% CO2 atmosphere. The cells were washed thrice with PBS, fixed with 4% formaldehyde for 15 min, washed with PBS, and DAPI added for visualization of cell nuclei. They were examined using a Nikon E600 fluorescence microscope, and photographed.

HepG2 cells = test: Assay to test for cell permeability of peptides; format: cell-based; details: 3 h
Protocol: Figure 1 Cell-permeability of X-protein peptides. (a) X-protein peptides aa 1–20 and 16–35 are cell-permeable. Four FITC-labelled peptides encompassing aa 1–20, 16–35, 21–40 and 34–53 from the N-terminal region of the X-protein were incubated at 10 μM with HepG2 cells and their uptake by the cells recorded by confocal microscopy. Cell nuclei were stained blue with DAPI. (b) The sequence of the first 35 N-terminal residues of the HBV X-protein are shown with the sequence of Xentry (LCLRPVG; residues 16–22) highlighted in red. Short FITC-labelled peptides (10 μM) aa 16–26, 16–24 and 16–22 (Xentry) derived from peptide aa 16–35 also permeate HepG2 cells (upper panel). […] Cell nuclei were stained blue with DAPI. […] Cell nuclei were stained blue with DAPI. Scale bar, 50 μm.
HepG2 cells (ATCC, Manassas, VA) were seeded into 8-well chamber slides at 1 × 10^5 cells per well in MEM media (Gibco, Life Technologies New Zealand Ltd) containing 10% FCS and PSG. […] L-isomeric peptides were diluted in 500 μl of MEM media without FCS, whereas D-isomeric peptides were diluted in the same media containing FCS, and each added to cells at a final concentration of 10 μM, or as indicated. The cells were incubated for 3 h at 37°C in a 5% CO2 atmosphere, washed with PBS, fixed with 4% formaldehyde for 30 min, and washed thrice with PBS. A drop of Prolong Gold anti-fade reagent with DAPI (Invitrogen, Life Technologies New Zealand Ltd) was added, and the cells mounted and examined with a Nikon E600 fluorescence microscope or a Leica TCS-SP2 confocal microscope.
(§1) Supplementary Figure 3. The D-isomeric form of Xentry aa 16-22 is cell permeable, and is stable in serum for at least 4 h.
(§2) (a) FITC-labelled D-isomeric Xentry was incubated with HepG2 cells at concentrations of […] for 3 h.
(§3) Uptake was recorded by fluorescence microscopy. Cell nuclei were stained with DAPI. (b) FITC-labelled L-isomeric and D-isomeric forms of Xentry were incubated in serum for 0, 1, and 4 h before incubation with HepG2 cells. Cell nuclei were stained with DAPI. Scale bar, 50 μm. […]

[2] = format: in vitro ADME; details: FITC-labelled peptide incubated in serum 0, 1 and 4 h, then incubated with HepG2 cells; read-out cell uptake by fluorescence microscopy
Protocol: as §1, §2, §3

WM-266-4 melanoma cells [3] = test: Apoptosis of melanoma cells by Xentry-conjugated anti-B-raf antibody (annexin-V fluos); format: cell-based; details: annexin-V fluos staining
Protocol: HepG2 cells were seeded at 1 × 10^5 cells per well into 8-well chamber slides, and cultured overnight at 37°C in an atmosphere of 5% CO2. They were washed thrice with serum-free MEM media and resuspended in 500 μl of serum-free MEM. A 30 μl solution containing conjugation buffer, 0.85 μg of the Xentry peptide biotin-[sequence], 9 μg of a FITC-labelled rabbit IgG (Sigma, MO) or 1 μg of a rabbit polyclonal anti-B-raf antibody (Sigma, MO), and 4.8 μg of transglutaminase was incubated for 1 h at 37°C. The resulting conjugates were added to the cells, which were incubated for 3 h at 37°C and washed thrice with PBS. […] Cells incubated with the Xentry-anti-B-raf antibody conjugate were stained with annexin-V Fluos (Roche Diagnostics NZ Ltd., Auckland) to detect cell apoptosis. The cells were examined using a Nikon E600 fluorescence microscope, and photographed.

[4] = Biodistribution of a Xentry-β-galactosidase conjugate in mice (X-gal staining); format: in vivo, Balb/c mice
Protocol: One milligram of recombinant β-galactosidase (Medicago AB, Uppsala, Sweden) was cross-linked to 0.2 mg of a FITC-labelled Xentry peptide fused to a polyglutamine stretch (FITC-lclrpvggrrQQQQQQrr; Peptide 2.0 Inc., Chantilly, VA) with 4.8 μg of transglutaminase in 40 μl of transglutaminase buffer for 1 h at 37°C. […] Control mice (one mouse per time point) were intravenously injected with 1 mg of unconjugated β-galactosidase. The heart, lungs, liver, spleen, pancreas, kidneys, stomach, small intestine, colon, muscle and brain of each mouse were collected, and frozen at −80°C. Frozen organ sections were fixed in 0.25% glutaraldehyde for 15 min, washed thrice with PBS and stained with 1 mg/ml of X-gal (Sigma, MO) for 3 h at 37°C. The sections were washed thrice with PBS, examined by light microscopy and photographed.

live HepG2 cells = details: live unfixed cells, 3 h 37°C, β-galactosidase substrate C12FDG 10 min, fluorescence microscopy
Protocol: (a) Visualization of the internalization of an unlabelled Xentry-β-galactosidase conjugate, and unconjugated β-galactosidase, after a 10 min incubation with live cells preloaded with the green fluorescent substrate C12FDG.
HepG2 cells were seeded at 1 × 10^5 cells per well into 8-well chamber slides, and cultured overnight at 37°C in a 5% CO2 atmosphere. They were washed thrice with serum-free MEM media, and 500 μl of serum-free MEM added to the wells. A Xentry peptide (biotin-[sequence]; Peptide 2.0 Inc., Chantilly, VA) where LCLRP was fused to a polyglutamine stretch was conjugated to recombinant β-galactosidase. A 30 μl solution containing conjugation buffer (5 mM CaCl2, 1 mM DTT, 50 mM Tris-HCl), 0.84 μg of Xentry peptide, 16.5 μg of β-galactosidase (5 U; Sigma, MO), and 4.8 μg of transglutaminase (Ajinomoto, Itasca, IL) was incubated for 1 h at 37°C. The resulting conjugate was added to the cells, which were incubated for 3 h at 37°C. The cells were washed thrice with PBS, and the β-galactosidase substrate 5-dodecanoylaminofluorescein di-β-D-galactopyranoside (Imagene C12FDG; Invitrogen Life Technologies New Zealand Ltd) added, followed by incubation for 10 min at 37°C. The cells were washed, and examined using a Nikon E600 fluorescence microscope and photographed.

## Biotin-LCLRPVGGGWEAKLAKALAKALAKHLAKALAKALKACEA (cysteine pairing not given here) [Xentry-KALA fusion peptide, tested as complex with anti-B-raf siRNA]
WM-266-4 melanoma cells [1]
  Apoptosis of WM-266-4 melanoma cells: causing cell apoptosis

## CC(C)C[C@@H](NC(=O)[C@@H](CS)NC(=O)[C@@H](CC(C)C)NC(=S)Nc1ccc2c(c1)C(=O)OC21c2ccc(O)cc2Oc2cc(O)ccc21)C(=O)N[C@H](CCCNC(=N)N)C(=O)N1CCC[C@@H]1C(=O)N[C@@H](C(=O)NCC(=O)O)C(C)C [D-isomeric form] ({FITC}-[dL][dC][dL][dR][dP][dV]G-OH)
syndecan-4; 1 μg/ml control antibody against TRAIL
  Uptake by HepG2 cells after control anti-TRAIL antibody: no effect
syndecan-4; 1 μg/ml goat anti-human syndecan-4 antibody 30 min pre-incubation, MEM 10% FCS
  Uptake by HepG2 cells after anti-syndecan-4 antibody: blocked
HepG2 cells; FITC-labelled D-isomeric Xentry 10, 20, 50 and 100 µM
  Uptake into HepG2 cells at increasing concentrations: increased uptake
HepG2 cells; FITC-labelled D-isomeric Xentry, media containing FCS, fluorescence microscopy
  Cell permeability (HepG2 cells): cell-permeable
[2]
  Time stable in serum: at least 4 h

## Biotin-LCLRPVGGGRRRQQQQQQRRR [Xentry-anti-B-raf antibody conjugate, rabbit polyclonal anti-B-raf antibody conjugated to Xentry polyglutamine peptide]
WM-266-4 melanoma cells [3]
  Apoptosis of WM-266-4 melanoma cells: undergo apoptosis

## unconjugated β-galactosidase: recombinant β-galactosidase without Xentry, control [reference compound]
[4]; 1 mg unconjugated β-galactosidase i.v., one mouse per time point, data not shown
  X-gal staining of organs: did not stain
Live HepG2 cells
  Uptake by live HepG2 cells: not

## FITC-lclrpvggrrQQQQQQrr [Xentry-β-galactosidase conjugate, recombinant β-galactosidase cross-linked to FITC-labelled D-form Xentry polyglutamine peptide (injected into mice)]
[4]; 1 mg i.v., 1 h, intensity of staining diminished
  Retention in stained organs at 1 h, except for the brain: retained the bioactive conjugate
[4]; 1 mg i.v., 6 h
  β-galactosidase activity in organs at 6 h: only the spleen and small intestine retained some β-galactosidase activity
[4]; 1 mg i.v., 24 h, data not shown
  β-galactosidase activity in organs by 24 h: completely lost
[4]; 1 mg i.v., X-gal stained sections
  Distribution within organs: concentrated in the enterocytes of the small intestine, epithelium of the stomach, and in the marginal zone or marginal sinus of the spleen
[4]; 1 mg i.v., data not shown
  Staining of pancreas, colon and muscle at 15 min: poorly stained
[4]; 1 mg i.v., lungs, liver, spleen, kidneys, stomach, small intestine, colon, muscle, brain listed as stained
  X-gal staining of organs at 15 min: most of the organs stained blue
